In patent US20230071371A1 (Scripps Research, published 2023):
Bridges are numbered along the chain shown (N, C = ends). Where no end group is shown, it is not given here. L1 = not defined here; L3 = not defined here; L4 = not defined here; L5 = not defined here

T1: GPR10 (UniProt P49683 1-370, limits assumed)
T1 sequence (looked up): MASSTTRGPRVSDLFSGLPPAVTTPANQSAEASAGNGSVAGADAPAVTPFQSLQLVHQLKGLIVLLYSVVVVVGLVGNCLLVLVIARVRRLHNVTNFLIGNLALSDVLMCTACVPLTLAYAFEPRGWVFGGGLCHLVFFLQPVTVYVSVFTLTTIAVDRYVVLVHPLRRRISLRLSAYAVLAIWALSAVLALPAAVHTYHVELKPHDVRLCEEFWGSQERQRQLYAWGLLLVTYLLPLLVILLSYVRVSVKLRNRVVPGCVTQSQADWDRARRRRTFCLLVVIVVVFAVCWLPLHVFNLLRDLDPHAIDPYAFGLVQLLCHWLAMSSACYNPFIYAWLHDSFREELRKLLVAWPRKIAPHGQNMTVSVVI


Biological target: T1, GPR10
Test: cell-based or functional assay

GPR10 EC50 [nM]	Binder
17	SRAHQHSMETRTCDINPAWCTGRGIRPVGRF-NH2 (linker 13-20 via L3; reading uncertain) [Conjugate 239]
18	TPDINCAWYTGRCIRPVGRF-NH2 (cysteine pairing not given here) [SEQ ID NO 84]
10	TPDCNPAWYTCRGIRPVGRF-NH2 (cysteine pairing not given here) [SEQ ID NO 105]
160	TPDINPAWCTGRGIRCVGRF-NH2 (linker 9-16 via L1; reading uncertain) [Conjugate 211]
840	TPDICPAWYTGCGIRPVGRF-NH2 (linker 5-12 via L5; reading uncertain) [Conjugate 221]
16	CRAHQHSCETRTPDINPAWYTGRGIRPVGRF-NH2 (cysteine pairing not given here) [SEQ ID NO 89]
630	SRAHQHSMETRTCDINPAWCTGRGIRPVGRF-NH2 (linker 13-20 via L4; reading uncertain) [Conjugate 240]
40	SRAHQHSMETRTCDINPAWCTGRGIRPVGRF-NH2 (linker 13-20 via L1; reading uncertain) [Conjugate 228]
7.3	TPDCNPAWYTCRGIRPVGRF-NH2 (linker 4-11 via L1; reading uncertain) [Conjugate 206]
16	TPCINPAWYCGRGIRPVGRF-NH2 (cysteine pairing not given here) [SEQ ID NO 104]
33	TCDINPAWCTGRGIRPVGRF-NH2 (linker 2-9 via L3; reading uncertain) [Conjugate 213]
610	TPDICPAWYTGCGIRPVGRF-NH2 (linker 5-12 via L4; reading uncertain) [Conjugate 220]
77	TPDCNPAWYTCRGIRPVGRF-NH2 (linker 4-11 via L4; reading uncertain) [Conjugate 217]
13	TPDINPAWYTGRGIRPVGRF-NH2 [SEQ ID NO 106]
12	TCDINPAWCTGRGIRPVGRF-NH2 (linker 2-9 via L1; reading uncertain) [Conjugate 204]
33	TPDINPCWYTGRGCRPVGRF-NH2 (cysteine pairing not given here) [SEQ ID NO 85]
10	SRAHQHSMETRTPDCNPAWYTCRGIRPVGRF-NH2 (linker 15-22 via L1; reading uncertain) [Conjugate 229]
13	TPDICPAWYTGCGIRPVGRF-NH2 (linker 5-12 via L1; reading uncertain) [Conjugate 207]
620	TCDINPAWCTGRGIRPVGRF-NH2 (linker 2-9 via L5; reading uncertain) [Conjugate 215]
44	TPDICPAWYTGCGIRPVGRF-NH2 (cysteine pairing not given here) [SEQ ID NO 83]
17	SRAHQHSMETRTPDCNPAWYTCRGIRPVGRF-NH2 (cysteine pairing not given here) [SEQ ID NO 93]
6.1	SRAHQHSMETRTPDCNPAWYTCRGIRPVGRF-NH2 (linker 15-22 via L3; reading uncertain) [Conjugate 242]
85	SRAHQHSMCTRTPDICPAWYTGRGIRPVGRF-NH2 (linker 9-16 via L1; reading uncertain) [Conjugate 227]

GPR10 EC50 [nM]	Binder
120	TPDINPAWCTGRGIRCVGRF-NH2 (cysteine pairing not given here) [SEQ ID NO 87]
81	TPDCNPAWYTCRGIRPVGRF-NH2 (linker 4-11 via L5; reading uncertain) [Conjugate 218]
5.2	TPDINPCWYTGRGCRPVGRF-NH2 (linker 7-14 via L3; reading uncertain) [Conjugate 222]
3.9	TPDCNPAWYTCRGIRPVGRF-NH2 (linker 4-11 via L3; reading uncertain) [Conjugate 216]
24	CRAHQHSCETRTPDINPAWYTGRGIRPVGRF-NH2 (linker 1-8 via L1; reading uncertain) [Conjugate 225]
> 1000	TPDINPCWYTGRGCRPVGRF-NH2 (linker 7-14 via L4; reading uncertain) [Conjugate 223]
10	TPDINPCWYTGRGCRPVGRF-NH2 (linker 7-14 via L1; reading uncertain) [Conjugate 209]
17	CRAHQHSCETRTPDINPAWYTGRGIRPVGRF-NH2 (linker 1-8 via L3; reading uncertain) [Conjugate 233]
230	CRAHQHSCETRTPDINPAWYTGRGIRPVGRF-NH2 (linker 1-8 via L4; reading uncertain) [Conjugate 234]
6800	TPDINPACYTGRGICPVGRF-NH2 (cysteine pairing not given here) [SEQ ID NO 86]
41	SRAHQHSMCTRTPDICPAWYTGRGIRPVGRF-NH2 (cysteine pairing not given here) [SEQ ID NO 91]
> 1000	TPDINPCWYTGRGCRPVGRF-NH2 (linker 7-14 via L5; reading uncertain) [Conjugate 224]
230	TCDINPAWCTGRGIRPVGRF-NH2 (linker 2-9 via L4; reading uncertain) [Conjugate 214]
21	TPCINPAWYCGRGIRPVGRF-NH2 (linker 3-10 via L1; reading uncertain) [Conjugate 205]
15	TPDINCAWYTGRCIRPVGRF-NH2 (linker 6-13 via L1; reading uncertain) [Conjugate 208]
25	TPDICPAWYTGCGIRPVGRF-NH2 (linker 5-12 via L3; reading uncertain) [Conjugate 219]
330	CRAHQHSCETRTPDINPAWYTGRGIRPVGRF-NH2 (linker 1-8 via L5; reading uncertain) [Conjugate 235]
720	TPDINPACYTGRGICPVGRF-NH2 (linker 8-15 via L1; reading uncertain) [Conjugate 210]
33	TCDINPAWCTGRGIRPVGRF-NH2 (cysteine pairing not given here) [SEQ ID NO 103]
18	SRAHQHSMETRTCDINPAWCTGRGIRPVGRF-NH2 (cysteine pairing not given here) [SEQ ID NO 92]
1600	TPDINPAWYCGRGIRPCGRF-NH2 (cysteine pairing not given here) [SEQ ID NO 88]
1500	SRAHQHSMETRTCDINPAWCTGRGIRPVGRF-NH2 (linker 13-20 via L5; reading uncertain) [Conjugate 241]
> 10000	TPDINPAWYCGRGIRPCGRF-NH2 (linker 10-17 via L1; reading uncertain) [Conjugate 212]
